Experimental data reported in US20200407445A1 (ITEOS THERAPEUTICS, published 2020).
Positions count from the first letter of the chain named.

T1: human TIGIT expressed on cells (human, UniProt Q495A1 22-244)
T1 sequence (looked up): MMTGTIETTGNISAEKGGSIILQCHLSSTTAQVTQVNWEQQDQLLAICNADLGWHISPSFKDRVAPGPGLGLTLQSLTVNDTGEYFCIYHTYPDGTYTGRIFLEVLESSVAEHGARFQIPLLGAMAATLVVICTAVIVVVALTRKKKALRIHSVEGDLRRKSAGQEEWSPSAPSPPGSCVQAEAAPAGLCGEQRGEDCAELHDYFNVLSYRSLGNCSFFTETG

T2: Human TIGIT-Fc (human, UniProt Q495A1 22-141)
T2 construct: bought (Creative Biomart); also called TIGIT-Fc antigen; TIGIT-Fc fusion antigen; not shown: Fc part
T2 sequence (looked up): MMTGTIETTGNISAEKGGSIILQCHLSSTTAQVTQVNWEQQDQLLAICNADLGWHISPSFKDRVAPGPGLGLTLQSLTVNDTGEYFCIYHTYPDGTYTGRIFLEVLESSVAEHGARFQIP

T3: Human TIGIT-His (human, UniProt Q495A1 22-141, biotinylated in the ForteBio Fab assay)
T3 construct: bought (Creative Biomart); also called Biotinylated Human TIGIT HIS; TIGIT-His monomer; not shown: His tag
T3 sequence (looked up): T2 sequence (looked up)

T4: mouse TIGIT expressed on cells (mouse, UniProt P86176 29-249)
T4 construct: whole, on cells; on Jurkat cells engineered to express mouse TIGIT; also called mTIGIT; Jurkat-mTIGIT
T4 sequence (looked up): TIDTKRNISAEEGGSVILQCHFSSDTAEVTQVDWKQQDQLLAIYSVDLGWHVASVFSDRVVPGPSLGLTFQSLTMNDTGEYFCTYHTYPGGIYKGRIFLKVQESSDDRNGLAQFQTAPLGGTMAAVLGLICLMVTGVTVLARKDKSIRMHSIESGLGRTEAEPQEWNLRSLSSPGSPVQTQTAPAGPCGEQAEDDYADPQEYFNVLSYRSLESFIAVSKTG

B1: anti-TIGIT antibody clone 29520 (IgG) (antibody, V domains shown)
VH: QVQLVESGGGLVQPGRSLRLSCAASGFTFRDYAMHWVRQAPGKGLEWVSGITWNSGLIGYADSVKGRFTISRDNAKNSLYLQMNSLRAEDTALYYCAKPVPRLRGLDVWGQGTMVTVSS
VL: DIQLTQSPSSVSASVGDRVTITCRASQGISSWLAWYQQKPGKAPKLLIYGASSLQSGVPSRFSGSGSGTDFTLTISSLQPEDFATYYCQQAFYLPWTFGGGTKVEIK
B2: anti-TIGIT antibody clone 29527 (IgG) (antibody, V domains shown)
VH: QVQLVESGGGVVQPGRSLRLSCAASGFTFSSSYMHWVRQAPGKGLEWVAVIGADGSNKYYADSVEGRFTISRDNSKNTLYLQMNSLRAEDTALYYCAKPVPRRRGLDVWGQGTMVTVSS
VL: B1 VL
B3: anti-TIGIT antibody clone 29494 (IgG) (antibody, V domains shown)
VH: QVQLQESGPGLVKPSETLSLTCTVSGGSISSGSYYLAWIRQPPGKGLEWIGSIFRSGSTYYNPSLESRVTISVDTSKNQFSLKLSSVTAADTAVYYCAIEGANFKDFGYVAFDIWGQGTMVTVSS
VL: EIVMTQSPATLSVSPGERATLSCRASQSVSSNLAWYQQKPGQAPRLLIYGASTRATGIPARFSGSGSGTEFTLTISSLQSEDFAVYYCQQSPPWPRTFGGGTKVEIK
B4: anti-TIGIT antibody clone 29499 (IgG) (antibody, V domains shown)
VH: B3 VH with V2L, G32S, S33R, L36W, F54G, R55T, E66K, A90T, K105R
VL: B3 VL
B5: anti-TIGIT antibody clone 29513 (IgG) (antibody, V domains shown)
VH: QVQLVQSGAEVKKPGSSVKVSCKASGGTFQNYAISWVRQAPGQGLEWMGVIVPIFGTANYAQKFQGRVTVTADESTSTAYMELSSLRSEDTAVYYCARLHLGQKAYYGMDVWGQGTTVTVSS
VL: DIQMTQSPSSLSASVGDRVTITCRASQSISSYLNWYQQKPGKAPKLLIYAASSLQSGVPSRFSGSGSGTDFTLTISSLQPEDFATYYCQQRYVFPPTFGGGTKVEIK
B6: anti-TIGIT antibody clone 29523 (IgG) (antibody, V domains shown)
VH: B2 VH with Q1E, S30G, S32Y, G52W, A53P, Y59L, E65K, R102K, R103S, G105A
VL: B1 VL
B7: anti-TIGIT antibody clone 31288 (IgG) (antibody, V domains shown)
VH: B3 VH with V2L, M120T
VL: B3 VL
notes: human IgG

biological target: T1, human TIGIT expressed on cells; assay: cell-based or functional assay

Row | EC50 for increase in IFNg secretion by human primary CD8 T cells, FIG. 13B [pM] | EC50 of Jurkat-hTIGIT cell activation (luciferase), FIG. 12B [pM] | increase of IFNg secretion over isotype control, human primary CD8+ T cells + CHO-TCR-CD155 [fold] | Binder
1 | 11100 | 2300 | 5.4 | B1
2 | 5100 | 32000 | 4.5 | B2
3 | 6100 | 4400 | 5.8 | B3
4 | – | – | 5.2 | B4
5 | – | – | 3.2 | B5

biological target: T1, human TIGIT expressed on cells; assay: cell-based or functional assay; remark: another data set of the same source

Row | Induction over Isotype control (fold change), luciferase, Jurkat-hTIGIT + CHO-TCR-CD155, 133 nM [fold] | Binder
6 | 2.52 | B1
7 | 2.4 | B6
8 | 2.96 | B2
9 | 3.42 | B3
10 | 3.68 | B4
11 | 3.26 | B5

biological target: T2, Human TIGIT-Fc; assay: ForteBio BLI, IgG KD, avid
Protocol: Briefly, ForteBio affinity measurements were performed by loading IgGs on-line onto AHQ sensors. Sensors were equilibrated off-line in assay buffer for 30 min and then monitored on-line for 60 seconds for baseline establishment. Sensors with loaded IgGs were exposed to 100 nM antigen (human TIGIT-Fc, human TIGIT-His or cyno TIGIT-Fc) for 5 minutes, afterwards they were transferred to assay buffer for 5 min for off-rate measurement. Kinetics were analyzed using the 1:1 binding model.

Row | Kd [pM] | Binder
12 | 384 | B1
13 | 531 | B6
14 | 350 | B2
15 | 376 | B3
16 | 319 | B4
17 | 392 | B5

biological target: T1, human TIGIT expressed on cells; assay: flow cytometry on Jurkat-hTIGIT, FIG. 9
Protocol: (§1) Antibodies were incubated with the cells for 20 min at 4° C. in FACS buffer. […] Geometric mean fluorecence intensity was analysed using LSR BD Fortessa. Cell binding was recorded as the median florescence intensity of PE on the transfected line compared to the un-transfected line for each antibody (Table 3).

Row | EC50 [pM] | Binder
18 | 119 | B1
19 | 50 | B2
20 | 70 | B3

biological target: T3, Human TIGIT-His; assay: Biacore, IgG captured, TIGIT-His in solution
Protocol: (§2) Biosensor analysis was conducted at 25° C. in a HBS-EP buffer system (10 mM HEPES pH 7.3, 150 mM NaCl, 3 mM EDTA, 0.05% Surfactant P20) using a Biacore 8K optical biosensor docked with a CMS sensor chip (GE Healthcare, Marlboro, Mass.). The sample hotel was maintained at 8° C. […] This surface type provided a format for reproducibly capturing fresh analysis antibody after each regeneration step. Flow cell 2 was used to analyze captured antibody (60-90 RU) while flow cell 1 was used as a reference flow cell. […] Each of the antigen sample concentrations were run as a single replicate. Two blank (buffer) injections also were run and used to assess and subtract system artefacts. The association (300 s) and dissociation (600 s) phases for all antigen concentrations were performed at a flow rate of 30 uL/min. The surface was regenerated with three sequential injections (15 s, 15 s and 60 s) of 10 mM glycine, pH 1.5 at a flow rate of 30 uL/min. The data was aligned, double referenced, and fit to a 1:1 binding model using Biacore 8K Evaluation Software, version 1.0.

Row | Kd [pM] | Binder
21 | 716 | B1
22 | 270 | B3
23 | 192 | B7

biological target: T5, cynomolgus TIGIT on primary CD8+ T cells (Macaca fascicularis (cynomolgus), UniProt A0A7N9I9V4 89-312); assay: flow cytometry, cynomolgus CD69+CD8+ T cells, FIG. 11
T5 construct: whole, on cells
T5 sequence (A0A7N9I9V4 entry or part of it): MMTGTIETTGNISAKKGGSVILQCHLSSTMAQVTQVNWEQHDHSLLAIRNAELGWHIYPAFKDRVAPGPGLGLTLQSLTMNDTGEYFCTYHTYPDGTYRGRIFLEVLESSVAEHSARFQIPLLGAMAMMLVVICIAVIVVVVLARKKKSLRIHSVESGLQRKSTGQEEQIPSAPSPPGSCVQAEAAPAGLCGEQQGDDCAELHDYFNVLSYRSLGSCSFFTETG
Protocol: Isolated PBMCs from Macaca fascicularis were obtained from BioPRIM. Cells were thawed and stimulated using the T cell activation/expansion kit for non-human primate (Miltenyi Biotec) at 1:2 (bead:cell ratio) following the manufacturer's specifications. The next day, cells were collected, counted and distributed at 5×10^4 cells per well. […] Then, cells were washed and incubated with the following antibodies and LVD mix for data illustrated in FIGS. 11A and 11B: anti-CD4-PercP-Cy5.5 (clone A161A1, BioLegend 357414); anti-CD8-BV510 (clone SK1, BD Bioscience 563919), CD69-APC-Cy7 (Clone FN50, BioLegend, 310914) and LVD efluor 520 (eBioscience 65-0867-14). Stained cells were analysed by FACS using BD LSR Fortessa. The EC50 value of binding was calculated using the % of positive TIGIT stained cells gated on LVD-CD69+CD8+ T cells.

Row | EC50 [pM] | Binder
24 | 1730 | B1
25 | 378 | B2

biological target: T3, Human TIGIT-His; assay: Biacore 8K, IgG on CM5 chip, human TIGIT-HIS in solution
Protocol: as §2

Row | Kd [pM] | Binder
26 | 716 | B1
27 | 1200 | B2
28 | 270 | B3
29 | 192 | B7

biological target: T3, Human TIGIT-His; assay: MSD-SET, monovalent (Fab or mAb titrated, not said which)
Protocol: (§3) Briefly, solution equilibrium titrations (SET) were performed in PBS+0.1% IgG-Free BSA (PBSF) with antigen (TIGIT-His monomer) held constant at 10-100 pM and incubated with 3- to 5-fold serial dilutions of Fab or mAbs starting at 10 pM-10 nM. Antibodies (20 nM in PBS) were coated onto standard bind MSD-ECL plates overnight at 4° C. or at room temperature for 30 min. Plates were then blocked by BSA for 30 min with shaking at 700 rpm, followed by three washes with wash buffer (PBSF+0.05% Tween 20). SET samples were applied and incubated on the plates for 150s with shaking at 700 rpm followed by one wash. Antigen captured on a plate was detected with 250 ng/mL sulfotag-labeled streptavidin in PBSF by incubation on the plate for 3 min. The plates were washed three times with wash buffer and then read on the MSD Sector Imager 2400 instrument using 1× Read Buffer T with surfactant. The percent free antigen was plotted as a function of titrated antibody in Prism and fit to a quadratic equation to extract the KD. To improve throughput, liquid handling robots were used throughout MSD-SET experiments, including SET sample preparation.

Row | Kd [pM] | Binder
30 | 210 | B1
31 | 1700 | B6
32 | 640 | B2
33 | 70 | B3
34 | 19 | B4
35 | 25 | B5

biological target: T1, human TIGIT expressed on cells; assay: flow cytometry, 100 nM Ab, Jurkat-hTIGIT vs untransfected
Protocol: as §1

Row | FON (Fold Over Negative) [fold] | Binder
36 | 166 | B1
37 | 150 | B6
38 | 142 | B2
39 | 164 | B3
40 | 164 | B4
41 | 156 | B5

biological target: T4, mouse TIGIT expressed on cells; assay: flow cytometry, 100 nM Ab, Jurkat-mTIGIT vs untransfected
Protocol: as §1

Row | FON (Fold Over Negative) [fold] | Binder
42 | 535 | B1
43 | 502 | B6
44 | 414 | B2
45 | 511 | B3
46 | 541 | B4
47 | 406 | B5

biological target: T3, Human TIGIT-His; assay: MSD-SET, monovalent (Fab or mAb titrated, not said which); remark: another data set of the same source
Protocol: as §3

Row | Kd [pM] | Binder
48 | 210 | B1
49 | 1700 | B6
50 | 640 | B2
51 | 70 | B3
52 | 19 | B4
53 | 25 | B5

biological target: T1, human TIGIT expressed on cells; assay: flow cytometry, competition with CD155-His (5 ug/ml) on Jurkat-hTIGIT

Row | IC50 [pM] | Binder
54 | 102 | B1
55 | 79 | B6
56 | 78 | B2
57 | 70 | B3
58 | 103 | B4
59 | 94 | B5

biological target: T1, human TIGIT expressed on cells; assay: flow cytometry, total human primary CD8+ T cells, % TIGIT stained cells, FIG. 10A

Row | EC50 [pM] | Binder
60 | 181 | B1
61 | 253 | B2
